Source: patent US20150086555A1

B1: TCN-543 (5081_G23) (antibody, V domains shown)
VH: QVHLVQSGAEVRKPGDSVKVSCKTSGYTFSTYPVAWVRQVPGQGLEWMGWISTYNGNTNFAQNFQGRVTLTTDTTTNTAYMEVRSLKFDDTAVYYCARVEGSYRDFWNNQNRFDPWGQGTLVTVSS
VL: SYVLTQPPSVSVAPGQTARISCGGSNIGGKSVHWYQQKPGQAPVLVVYDDSGRPSGIPERFSGSNSGDTATLTISRVEAGDEADYFCQVWDNFGGVFGTGTKVTVL
B2: TCN-545 (5082_I15) (antibody, V domains shown)
VH: QVQLQQWGAGLLKPSETLSLSCAVFGGSFSDYYWTWIRQPPGKGLEWIGEIKHSGRTNYNPSLESRVTISVDTSKNQFSLKLSSVTAADTAIYYCARGTDPDTEGYCRSGSCSAFDFWGQGTLVTVSS
VL: EIVLTQSPGTLSLSPGERATLSCRASHFVNYRSLAWYQQTPGQVPRLLIYGASTRATGIPDRFSGSGSGTDFTLTISRLEPEDFAVYFCQQYGGSPRYTFGQGTRLEIK
B3: TCN-546 (5089_L08) (antibody, V domains shown)
VH: QVQLQQWGAGLLKPSETLSLTCGVYGGSLSDYYWSWIRQPPGKGLEWIGEINHSGGTNYNPSLKRRVTISVDTSKKQFSLKMNSVTAADTAVYYCARGTDPDTEVYCRAGNCAAFDFWGQGTLVTVSS
VL: EIVLTQSPGTLSLSPGERATLSCRASHFVIGRAVAWYQQKPGQAPRLLIYGASSRATGIPDRFSGSGSGTDFTLTISRLETEDFAVFYCQHYGSSPRYAFGQGTKLEIK
B4: TCN-553 (5261_C18) (antibody, V domains shown)
VH: QVQVVQSGTEVKKPGSSVKVSCQTSGGRFMSYAITWVRQAPGQGLEWMGGIVPVFGTANYAQKFQGRVTITTDDSTRTAYMELSSLRSEDTAVYYCGFRYGSGYGFDSWGQGTLVTVSS
VL: EIVLTQSPGTLSLSPGERATLSCRASQSVSSSYLAWYQKKPGQAPRLLIYGASTRATGIPDRFTGSGSGTDFTLSISRLEPEDFAVYYCQHFGTSVFTFGGGTKVEIK
B5: TCN-555 (5246_L16) (antibody, V domains shown)
VH: QVQLVQSGAEVKRPGSSVKVSCTASGGIFRKNAISWVRQAPGQGLEWMGGIIAVFNTANYAQKFQNRVKITADESGNTAYMELSSLTSDDTAVYYCASHPKYFYGSGSYPDFWGQGTLVTVSS
VL: QSALTQPRSVSGSPGQSITISCTGGSSDIGASNSVSWYQQHPGKAPKLVIFDVTERPSGVPHRFSGSKSGNTASLTVSGLQPDDEADYFCCAYGGKYLVVFGGGTKVTVL
B6: TCN-522 (3212_I12) (antibody, V domains shown)
VH: QVQLQQWGAGLLKPSETLSLTCTVSGGSLTDYSWNWIRQPPGKGLEWIGDTLHNGYTNYNPSLRGRVSISIDTSKNQVSLRLTSVTAADTALYYCARGSGGYGGFDYFGKLRTWDFWGQGTLVTVSS
VL: DIQLTQSPSSLSASVGDRVTITCRASQGIRNDLGWYQQKPGNAPKRLIFGASSLQSGVPSRFSGSGSGTEFTLTISSLQPEDFATYYCLQHNSYPYTFGQGTKLEIK
B7: TCN-527 (5086_C06) (antibody, V domains shown)
VH: QVQLQESGPGLVKPSETLSLNCAVSGGSISNYYWSWIRQPPGKGLEWIGYISYNGRPKYNPSLTSRVTISVDTSKDQFSLELRSVTAADTALYYCARETRFGELLSPYDAFEIWGQGTMVTVSS
VL: DIQMTQSPSSLSASVGDRVTMTCRASQNIRSYLNWYQQRPGTAPKLLIYAASTLHSGVPSRFSGGGSGTDFTLTINNLQPEDFASYYCQQSYDNPQTFGQGTKVEIK
B8: TCN-528 (5087_P17) (antibody, V domains shown)
VH: QVQLVQSGSEVKKPGASVKVSCKASGYTFTNYDINWIRQAPGQGLEWMGWINPNSGTTGSAQRFQGRVTITVDTSITTVYMELSSLRSDDTAIYYCARGRELLRLQHFLTDSQSERRDCFDPWGQGTLVTVSS
VL: DIQMTQSPSSLSASVGDRVTITCRANQDIGIYLNWYQQNPGKVPKLLLHGASSLQGGVPSRFSASGSGTDFTLTIHSLQPEDLATYYCQQSRRLPYTFGQGTRVELK

What was measured:
Conditions in all cases: remark: other sources report otherwise
[1] = molecular target: recombinant homotrimeric HA A/common magpie/Hong Kong/5052/07 H5N1 (Influenza A virus A/common magpie/Hong Kong/5052/2007(H5N1)); assay: protein microarray, purified IgG, trimeric HA
[2] = molecular target: T1, recombinant soluble homotrimeric HA of A/common magpie/Hong Kong/5052/07 (H5N1) (Influenza A virus A/common magpie/Hong Kong/5052/2007(H5N1)); assay: trimeric HA microarray, transfection supernatant set 5
[3] = molecular target: recombinant soluble homotrimeric HA, A/common magpie/Hong Kong/5052/07 H5N1 (Influenza A virus A/common magpie/Hong Kong/5052/2007(H5N1)); assay: microarray, transfection SN IgG, trimeric HA
[4] = molecular target: T1, recombinant soluble homotrimeric HA of …; assay: HA microarray, BCC supernatant
[5] = molecular target: T1, recombinant soluble homotrimeric HA of …; assay: trimeric HA microarray, transfection supernatant set 2

Binder | Trimeric HA Binding: RLU [1] [RLU] | Trimeric HA Binding: RLU [2] [RLU] | Trimeric HA Binding: RLU [3] [RLU] | Trimeric HA Binding: RLU [4] [RLU] | Trimeric HA Binding: RLU [5] [RLU]
B1 | 679 | 1070 | – | – | –
B2 | 804 | 1390 | – | – | –
B3 | 810 | 1920 | – | – | –
B4 | 22800 | – | 39200 | 26000 | –
B5 | 17000 | – | 33600 | 16100 | –
B6 | 15100 | – | – | – | 21400
B7 | 24600 | – | – | – | 43800
B8 | 25500 | – | – | – | 45300
